Test results published in patent US5610063A, “cDNA for α-N-acetyl-galactosaminidase from Gallus domesticus” (Curators of the University of Missouri, priority 1995, dated 1997).
Numbering of substitutions follows the chain as printed. “Also recorded” adds a separate entry of the source. Each block holds one molecule with its values, some of them ahead of it.

Legend:
[1] = molecular target: T1, Gallus N-acetyl-α-D-galactosaminidase (Gallus gallus, UniProt Q90744); test: Substrate specificity (relative activity); type: biochemical, Gallus domesticus; conditions: % of enzyme activity on the corresponding conjugate, 2.5 mM PNP conjugates, pH 3.5
T1 construct: the cDNA clone corresponds to the region of the mRNA encoding the mature polypeptide for the chicken α-N-acetyl-galactosaminidase; from tissue; host or cells: chicken liver
T1 sequence (Q90744 1-405 S162A): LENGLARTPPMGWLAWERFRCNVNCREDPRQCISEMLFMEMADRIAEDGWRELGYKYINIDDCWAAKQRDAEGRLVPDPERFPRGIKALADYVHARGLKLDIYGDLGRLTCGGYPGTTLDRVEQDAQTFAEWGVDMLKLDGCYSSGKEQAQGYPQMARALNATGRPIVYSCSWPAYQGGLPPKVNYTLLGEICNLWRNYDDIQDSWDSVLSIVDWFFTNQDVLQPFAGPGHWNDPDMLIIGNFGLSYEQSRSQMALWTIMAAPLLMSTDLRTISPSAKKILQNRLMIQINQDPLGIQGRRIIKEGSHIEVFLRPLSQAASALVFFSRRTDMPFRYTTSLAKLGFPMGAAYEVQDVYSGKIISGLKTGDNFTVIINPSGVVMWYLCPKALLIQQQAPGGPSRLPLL

[2] = molecular target: T1, Gallus N-acetyl-α-D-galactosaminidase; test: Kinetic parameters (Km, turnover number) of Gallus enzyme; type: biochemical, Gallus domesticus; conditions: Example 1 preparation
Method: Enzymatic activity was quantitated during the purification by measuring production of p-nitrophenol (PNP) from PNP-N-acetyl-α-D-galactosaminide or o-nitrophenol (ONP) from ONP-N-acetyl-α-D-galactosaminide. Enzyme aliquots were incubated in 200 μl of 50 mM Na citrate+1 mg/ml BSA+1.0 mM PNP-N-acetyl-α-D-galactosaminide, pH 3.5, at 37° C. The reactions were quenched with 1.0 ml of 0.25M Na2 CO3 and the OD 405 nm was measured. One unit of activity was defined as 1.0 μmole of substrate hydrolyzed per minute.

[3] = tested on: human α-N-acetyl-galactosaminidase; conditions: human enzyme; Schram et al, 1977; cited from earlier work
[4] = molecular target: T2, Gallus α-N-acetyl-galactosaminidase (Gallus gallus, UniProt Q90744); test: Affinity ligand chromatography; type: binding, Gallus domesticus; conditions: Affi-Gel 10 coupled ligand
T2 construct: mature glycoprotein, about 145 kDa oligomer
T2 sequence (Q90744 1-405 S162A): T1 sequence (Q90744 1-405 S162A)
Method: Synthesis of affinity ligand and resin: .xi.-aminohexanoyl-α-D-galactopyranosYlamine was synthesized by a modification of the method of Harpaz et al. (1974). Purity of the product was determined by thin-layer chromatography and mass spectroscopy. The ligand was coupled to Affi-Gel™ 10 per the manufacturer's directions. Coupling efficiencies of 80%.
Step 5. After dialysis, the pool was applied to a 1.5×20 cm .xi.-aminohexanoyl-α-D-galactopyranosylamine Affi-Gel™ 10 column equilibrated in 50 mM Na acetate+0.1% Triton X-100+0.01% NAN3, pH 5.0. The column was washed with 90 mls of equilibration buffer, and the enzyme was eluted with 50 mM NaH2 PO4 +100 mM methyl-α-D-galactopyranoside+0.1% Triton X-100+0.01% NAN3, pH 7.0. Active fractions were pooled, concentrated, and dialyzed into 50 mM Na acetate+0.1% Triton X-100+0.01% NaN3, pH 5.0.
7. Load the filtrate onto a 2.5×15.0 cm ε-amino-hexanoyl-α-D-galactopyranosylamine Affi-Gel™ 10 column equilibrated with 10 mM NaH2 PO4, pH 5.5 at 4° C. Wash the column with 300 ml of 75 mM NaH2 PO4 pH 5.5. Elute the enzyme from the column with 300 ml (range 50 to 500) of 50 mM NaH2 PO4 +100 mM D-(+)-Galactose, pH 7.0.

[5] = Hata et al., 1992; cited from earlier work
[6] = Aminopeptidase assay with p-nitroaniline (PNA) substrates; type: biochemical; conditions: for Aminopeptidase activity: five PNA substrates
Method: Aminopeptidase assays were performed by incubating aliquots of enzyme with 2.5 mM of various p-nitroaniline (PNA) substrates in 50 mM Na citrate+50 mM NaH2 PO4 +0.1% Triton X-100, pH 5.0 to 8.0 (Macfarlane et al., 1988). The reactions were incubated at 37° C., quenched with 1.0 ml of 0.25M Na2 CO3, and the OD 405 nm was determined. One unit of aminopeptidase activity was defined as 1.0 μmole of PNA hydrolyzed per minute.

human A2 erythrocytes [7] = test: Erythrocyte indices, hemolysis and morphology after enzyme treatment; type: cell-based
Ionic strength optimum = type: biochemical
human A2 erythrocytes [8] = test: Removal of blood group A epitope from A2 erythrocytes (hemagglutination); type: cell-based; conditions: much higher enzyme concentrations are required
Method: (§1) Endoprotease assays were performed by an adaption of the resorufin-labeled casein assay of Twining (Twining, 1984). The limit of sensitivity of this assay was determined using a trypsin standard. Stable, concentrated, detergent-free enzyme was prepared as described herein. Activity against the blood group antigen on erythrocytes was determined by incubating enzyme at 24°-37° C. for 2-8 hours with either erythrocytes equilibrated in 25 mM Na citrate+50 mM NaH2 PO4 +80 mM NaCl, pH 5.6-5.8, or in 2.5-5 mM Na citrate+300 mM glycine, pH 5.4-5.6. The cells were washed with phosphate buffered saline, pH 7.0, then incubated with varying dilutions of polyclonal or monoclonal antibody, as for example anti-A for A erythrocytes. Other antibodies and buffers could be used for other blood groups as is known in the art. Hemagglutination was performed and titer scored by standard methods (Bryant, 1982).
The enzyme was also tested on human A2 erythrocytes. Removal of the terminal N-acetyl-α-D-galactosaminyl residue from the blood group A epitope, {galNAc(α1-3) gal(β1-R) {fuc(α1-2)} glueNAc(β1-R)}, was achieved by the enzyme as shown in FIG. 8. […] Incubation at 37° C. was necessary because dilute concentrations of glycosidase were used.

[9] = Storage stability at 4° C.; type: physicochemical
pH optimum = type: biochemical; conditions: for pH optimum: pH 2.0 to 8.0 tested
Method: The pH optima was determined by incubating aliquots of the enzyme in 40 mM Na citrate+40 mM NaH2 PO4 +1 mg/ml BSA+2.5 mM PNP-N-acetyl-α-D-galactosamide, pH 2.0 to 8.0. The ionic strength optimum was determined by incubating aliquots of the enzyme in 2.5 mM Na citrate+1 mg/ml BSA+2.5 mM PNP-N-acetyl-α-D-galactoside+0 to 1.0M NaCl, pH 3.5 and 6.0. The Kms for ONP- and PNP-N-acetyl-α-D-galactosaminide were determined by varying the substrate concentration in 50 mM Na citrate+1 mg/ml BSA, pH 3.5. The native molecular weight was determined by applying a concentrated portion of the enzyme to a 1×45 cm Sephacryl S-200 column equilibrated in 25 mM Na citrate+200 mM NaCl, pH 6.0. SDS polyacrylamide electrophoresis (SDS-PAGE) was performed according to the method of Laemmli and the protein bands developed with Coomassie R-250 (Laemmli, 1970). Amino acid composition was determined on a Beckman amino acid analyzer (Moore et al., 1954).

resorufin-labeled casein = test: Endoprotease (resorufin-labeled casein) assay; type: biochemical; conditions: for endoprotease activity, resorufin-labeled casein assay: sensitivity limit 0.01 trypsin BAEE units
Method: as §1

[10] = Selectivity / other glycosidase activities of the enzyme preparation; type: biochemical
pI by chromatofocusing = type: physicochemical; conditions: Example 1 preparation
[11] = preparations isolated by the invention

Molecule: O=[N+]([O-])c1ccc(O[C@H]2O[C@H](CO)[C@H](O)[C@H](O)[C@H]2O)cc1 [PNP-α-D-galactopyranoside]
Relative Activity ([1]; Table IV, Example 1 preparation): 12.74%
Relative Activity ([1]; Table VI, improved purification (Example 2)): 15.79%
Km (in words) [2]: high Km
Km [3]: 1000 µM

Molecule: NCCCCCC(=O)N[C@H]1O[C@H](CO)[C@H](O)[C@H](O)[C@H]1O [.xi.-aminohexanoyl-α-D-galactopyranosylamine]
active site specific affinity ligand (in words) [4]: efficient active site specific affinity ligand

selectivity (in words) ([10]; for PNP-N-acetyl-α-D-galactosaminide): highly selective
B1: α-N-acetyl-galactosaminidase: purified exoglycosidase [EC 3.2.1.49] derived from Gallus domesticus (chicken) liver, degrades human blood group A2 epitope (protein, UniProt Q90744 1-405, looked up)
Alpha-N-acetylgalactosaminidas …: T1 sequence (Q90744 1-405 S162A) with A162S
degradation of the human blood group A epitope [5]: degrades the human blood group A epitope
Aminopeptidase activity ([6]; Example 1 preparation, below limits of detection): ≤ 0.05 units/mg enzyme
Aminopeptidase activity ([6]; Example 2 preparation): less than 0.05 units per mg
aminopeptidase activity (in words) [6, 11]: lacked detectable aminopeptidase
morphology of treated cells (human A2 erythrocytes [7]): mixed population of normocytes and spiculated cells
change in erythrocyte mean corpuscular volume (human A2 erythrocytes [7]; treated human A2 erythrocytes): insignificant change
change in mean corpuscular hemoglobin (human A2 erythrocytes [7]; treated human A2 erythrocytes): insignificant change
change in mean corpuscular hemoglobin concentration (human A2 erythrocytes [7]; treated human A2 erythrocytes): insignificant change
visible hemolysis (human A2 erythrocytes [7]; treated human A2 erythrocytes): little visible hemolysis
effect of ionic strength on activity (Ionic strength optimum; Example 1 preparation, high or low ionic strengths, pH 3.7): not strongly inhibited
effect of ionic strength on activity (Ionic strength optimum; Example 2 preparation, high / increasing ionic strength (pH 3.5)): unaffected by increasing ionic strength; also recorded: not significantly affected
deantigenation at lower temperatures and shorter incubations (human A2 erythrocytes [8]): achieved deantigenation
loss of activity on storage ([9]; Example 1 preparation, several months): less than 10%
loss of activity on storage ([9]; Example 2 preparation, six months): less than 5%
stability (in words) ([9]; purified enzyme): stable at 4 °C
pH range of activity (in words) (pH optimum; Example 1 preparation): broad pH range
pH optimum (pH optimum; Example 1 preparation): 3.7
pH range of activity (in words) (pH optimum; Example 2 preparation): broad pH range
pH optimum (pH optimum; Example 2 preparation): 3.4
"trypsin-like activity" (resorufin-labeled casein; Example 1 preparation): less than 0.78 ng per mg of pure enzyme
proteolytic activity (in words) (resorufin-labeled casein; Example 1 preparation): No proteolytic activity was detected
endoprotease activity, resorufin-labeled casein assay (resorufin-labeled casein; Example 1 preparation): ≤ 0.01 BAEE units/mg enzyme
"trypsin-like activity" (resorufin-labeled casein; Example 2 preparation): less than 0.78 ng per mg of pure enzyme
proteolytic activity (in words) (resorufin-labeled casein; Example 2 preparation): no measurable protease activity; also recorded: No proteolytic activity was detected
endoprotease activity, resorufin-labeled casein assay (resorufin-labeled casein; Example 2 preparation): less than 0.01 BAEE units/mg enzyme
endoprotease activity (in words) (resorufin-labeled casein; [11]): lacked detectable aminopeptidase and endoprotease activities
other glycosidase activities (in words) ([10]; preparations of the inventive isolation methods): lack other detectable glycosidase activities
pI (approximate mean) (pI by chromatofocusing): ~8.15
